For 1 molecule, Kd results are on record in patent US20240254222A1 (Bayer, published 2024).

The assay has as its target T1, Human Semaphorin3A-Sema Domain, TPP-19068 (human, UniProt Q14563 21-569).
T1 construct: produced inhouse in HEK293-6E; also called human monovalent Sema3A domain
T1 sequence: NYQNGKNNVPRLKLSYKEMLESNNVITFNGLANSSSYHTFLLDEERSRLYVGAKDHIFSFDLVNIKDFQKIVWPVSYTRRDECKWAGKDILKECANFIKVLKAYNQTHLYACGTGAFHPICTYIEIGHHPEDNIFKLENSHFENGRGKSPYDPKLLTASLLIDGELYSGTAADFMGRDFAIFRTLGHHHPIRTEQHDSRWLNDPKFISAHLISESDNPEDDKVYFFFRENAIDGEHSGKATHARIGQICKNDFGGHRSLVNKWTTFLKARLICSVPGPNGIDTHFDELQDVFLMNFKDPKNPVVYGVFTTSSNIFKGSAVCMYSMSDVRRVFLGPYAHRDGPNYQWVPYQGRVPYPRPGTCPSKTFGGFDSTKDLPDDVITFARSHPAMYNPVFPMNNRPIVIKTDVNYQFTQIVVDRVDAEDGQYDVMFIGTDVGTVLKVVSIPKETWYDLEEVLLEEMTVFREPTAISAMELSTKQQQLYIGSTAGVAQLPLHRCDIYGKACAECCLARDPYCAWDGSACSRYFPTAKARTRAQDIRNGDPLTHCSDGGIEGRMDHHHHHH
Kind of assay: SPR, 100 nM TPP-19068, binding experiment. As to the method: To assess the binding kinetics and affinity of anti-Sema3A antibodies as well as their species cross-reactivity profile, binding assays were conducted using surface plasmon resonance (SPR). Binding assays were performed on a Biacore T200 instrument or on a Biacore 8K+ instrument (Cytiva) at 25° C. using assay buffer HBS P+, 300 mM NaCl, 0.75 mM CaCl₂, 2.5 mM MgCl₂, 1 mg/ml BSA, 0.05% NaN₃. Antibodies were captured either via anti-human Fc IgGs (“Human antibody capture kit”, Order No. BR100839, Cytiva) or in case of Fc-tagged analytes by anti-human Fab IgGs (“Human Fab capture kit”, Order No. 28958325, Cytiva) covalently amine coupled to a Series S CM5 sensor chip (Cytiva). The amine coupling was carried out according to the manufacturer's instructions using 1-ethyl-3-(3-dimethylaminopropyl) carbodiimide hydrochloride (EDC), N-hydroxysuccinimide (NHS) and ethanolamine HCl, pH 8.5 (“Amine Coupling Kit” BR-1000-50, Cytiva.). For phage display hits Fc-tagged human and mouse Sema3A was used as analytes in a concentration range from 1.56-200 nM. Human, mouse, cynomolgus, rat, dog and pig monovalent Sema3A domain were used as analytes in a concentration series from […] in multi cycle kinetics mode or in 100 nM for binding analysis only. The sensor surface was regenerated with glycine pH 2.0 after each antigen injection. Obtained sensorgrams were double referenced (subtraction of reference flow cell signal and buffer injection) and were fitted to a 1:1 Langmuir binding model to derive kinetic data using the Biacore T200 Evaluation software.

B1: TPP-31357 (Fab, V domains shown)
V domain 1: EVQLLESGGGLVQPGGSLRLSCAASGFTFRSYAVHWVRQAPGKGLEWVSSTEGSGVGTSYTDSVKGRFTISRDNSKNTLYLQMNSLRAEDTAVYYCARMLGGGNPLDYLDYWGQGTLVTVSS
V domain 2: QSVLTQPPSASGTPGQRVTISCSGSSSNLGEGYDVHWYQQLPGKAPKLLIYYSDFRPSGVSDRFSGSKSGTSASLAISGLQSEDEADYYCAAWDDSLSSQVFGGGTQVTVLG
notes: Fab heavy chain entry carries myc and His tags; also called Fab of 3H4 Univ Ramot
As a reminder, the Kd is the equilibrium constant for the complex coming apart. Read a low Kd as a tighter complex. Consider B1, for which the Kd was 0.35 nM.
